Results published in US20060140946A1.

Molecular target: human tumor necrosis factor-alpha (hTNFα) (human) (UniProt P01375)
Test: cell-based or functional assay

Sequence of human tumor necrosis factor-alpha (hTNFα) (human) (P01375 77-233): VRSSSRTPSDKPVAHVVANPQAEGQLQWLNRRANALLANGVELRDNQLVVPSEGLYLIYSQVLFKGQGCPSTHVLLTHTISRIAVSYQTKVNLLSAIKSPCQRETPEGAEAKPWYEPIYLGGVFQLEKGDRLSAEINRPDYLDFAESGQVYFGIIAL

B1: chimeric mouse/human IgG1 anti-platelet mAb (7E3) (antibody, INN chains, looked up, V domains shown)
VH: EVQLQQSGTVLARPGASVKMSCEASGYTFTNYWMHWVKQRPGQGLEWIGAIYPGNSDTSYIQKFKGKAKLTAVTSTTSVYMELSSLTNEDSAVYYCTLYDGYYVFAYWGQGTLVTVSA
VL: EIVLTQSPVTLSVTPGDSVSLSCRASRDISNNLHWFQQTSHESPRLLIKYASQSMSGIPSRFSGSGSGTDFTLSINSVETEDFGMYFCQQTNSWPYTFGGGTKLEIK
modifications: IgG1
IL-6 secreted by FS-4 fibroblasts; 4 µg/ml antibody, rhTNF 0.3 ng/ml: 1.6 ng/mL | IL-6 secreted by FS-4 fibroblasts; 4 µg/ml antibody, rhTNF 1.5 ng/ml: 1.96 ng/mL | IL-6 secreted by FS-4 fibroblasts; 4 µg/ml antibody, rhTNF 7.5 ng/ml: 2.16 ng/mL
